Test results as given in paper PMC7261172 (2020).

Molecular target: E. coli β-clamp labelled with RED-maleimide dye (MST) (E. coli, UniProt P0A988 1-366, RED-maleimide fluorescent dye (RED-Maleimide Labelling Kit, NanoTemper); site not stated)
Assay: MST

Binder	Kd [µM]
Ac-MDRFSLKWKKKRKIRRRRRRRRRRR-NH2 (also: TFA salt) [Cell penetrating APIM-peptide RFSLK (Ac-MD-RFSLK-WKKKRKI-RRRRRRRRRRR)]	19
Ac-MDRWLVKWKKKRKIRRRRRRRRRRR-NH2 (also: TFA salt) [Cell penetrating APIM-peptide RWLVK (Ac-MD-RWLVK-WKKKRKI-RRRRRRRRRRR)]	35
